± gives the standard error. Variants at the floor of the assay were thinned out.
B1: glmS ribozyme (parent)
chain: AUAAAAGCGCCAGAACUACAGAAAUGUAGUUGACGAGGAGGAGGUUUAUCGAAUUUUCGGCGGAUGCCUCCAAA

Variants of: B1
Test: self-cleavage kobs at 2500 uM GlcN6P; higher = faster cleavage; RNA array
Details: with glucosamine-6-phosphate
Summary of the method: (§1)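 Barcoded glmS ribozyme variants on sequenced MiSeq chips were transcribed in situ by E. coli RNA polymerase and tracked through a hybridised Cy3 probe at 37 °C. Glucosamine-6-phosphate (40 μM to 10 mM) in HEPES/KCl/Mg(OAc)2 buffer was flowed in, and tiles were imaged over ~14 h. Signals were normalised to baseline and to non-cleaving reference variants; per-tile medians were fit to one- or two-exponential decays to give kobs. kcat and KM came from weighted Michaelis–Menten fits across concentrations.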

Variant	self-cleavage kobs at 2500 uM GlcN6P [s⁻¹]
A12C U31A U47C C67U	5.13e-05 ± 2.1e-05
A12G G41A C50A	< 1e-05
C10A G29C A42G U55C U56C C70U	< 1e-05
G7C U45A G51U G59U	< 1e-05
A12G G63A	< 1e-05
C10A G13U A36U U55C C67U	< 1e-05
C10U A14G G44U	< 1e-05
G7U G13A G38U A52C A53C	< 1e-05
G7U G32U U54C C68G	< 1e-05
G7U G43A U47A U57C A64U	< 1e-05
A12G A53G U69C	0.000297 ± 0.00012
G9U G35U G37C G51C	< 1e-05
C8A G9U A15C U31A G32A C70A	< 1e-05
A12G G32A G60U	< 1e-05
C10U G40A C70G	< 1e-05
G7U G59A C61U	< 1e-05
C8G C58G	< 1e-05
C11U G29C U31A	< 1e-05
C11A G21U A39C U46A U57C	< 1e-05
G9A G13C A33C G38C C61U G63U G66C	< 1e-05
C10G C34U G37U A42G	< 1e-05
C11G G35A G40A	< 1e-05
G9A G37A G38U	< 1e-05
G9C A39G C50U C71A	< 1e-05
C10A A64C C67G	8.61e-05 ± 3.1e-05
G9U C11U G29U A52U	< 1e-05
G9U A33G A53C	< 1e-05

Variant	self-cleavage kobs at 2500 uM GlcN6P [s⁻¹]
C8U U54G A64U U65G	< 1e-05
C10U C16G C61U C71U	< 1e-05
C10G G43U U46C	< 1e-05
G7U G9U U47A	< 1e-05
C8U C11G G13C	< 1e-05
A12G A36C G62U	< 1e-05
A12U G44C A53U	6.46e-05 ± 1.9e-05
C10G C19A A39U U69C	< 1e-05
C11U C16A U56G	0.000124 ± 4.3e-05
G9C A48G C67U	< 1e-05
C10A G51A G66A C68A C70A	7.81e-05 ± 3.1e-05
G7U G13U A42U G44C	< 1e-05
G7U G41A U47G C71G	< 1e-05
A12G A52G G60C U65G	< 1e-05
C8A G29U C68G	< 1e-05
G7C U31C U46C G66U	< 1e-05
C10U U31A A39U G51C	< 1e-05
A12G U45G G60U	< 1e-05
C10G G41U G59C G60C	< 1e-05
C10A G38C C58G	< 1e-05
C8G A39C C58U	< 1e-05
A12C A52U C67U	0.000185 ± 4.2e-05
C10G U30C G38C U47A	< 1e-05
C11U U55A C58G	5.84e-05 ± 1.6e-05
G7U A33U G35C G44C U45G G66U	< 1e-05
C10G G63C G66U	< 1e-05
G9C C16G G29U	< 1e-05

Variant	self-cleavage kobs at 2500 uM GlcN6P [s⁻¹]
C11U U30C A52G A64U	< 1e-05
G9A A33G G43C	< 1e-05
C8A C11U C70U	< 1e-05
C10U G32A C70U	6.3e-05 ± 3e-05
G9U C11U A33G G40U U69G	< 1e-05
C8U C61A C68U	< 1e-05
C10A C34G C68G	< 1e-05
C11A A14G G40U	5.01e-05 ± 1.9e-05
C10U A36U G40U	< 1e-05
G7U A52U U55C	< 1e-05
C8G C11A A33U G44A C58U	< 1e-05
A12G A14C A64G	4.13e-05 ± 1.6e-05
C10G G32U G62U U65G	< 1e-05
C11A C34A C58U C61G G62A	< 1e-05
C11U A48C G62U	< 1e-05
G7U G9U U31C U56C	< 1e-05
C8G C16G U56A	< 1e-05
C10U A12C C70A	< 1e-05
C11U A12G U56C	0.000115 ± 2.6e-05
C8U G13U G59U	< 1e-05
C8G C10G C70G	< 1e-05
A12G A48C C50U	< 1e-05
C10A G44U U49G U54C G60U C67U	< 1e-05
C8A A12C C68U	< 1e-05
A12C A15G G66U C67A	0.000636 ± 0.00013

Variants of: B1
Test: self-cleavage kobs at 10000 uM GlcN6P; higher = faster cleavage; RNA array
Details: with glucosamine-6-phosphate
Summary of the method: as §1

Variant	self-cleavage kobs at 10000 uM GlcN6P [s⁻¹]
C10A G29C A42G U55C U56C C70U	< 1e-05
A12G G63A	< 1e-05
G7U G13A G38U A52C A53C	< 1e-05
G7U G32U U54C C68G	< 1e-05
C8A G29U C68G	< 1e-05
G9U C11U A33G G40U U69G	< 1e-05
G7U A52U U55C	< 1e-05
C8G C10G C70G	< 1e-05
